The values that follow come from the supplement of paper PMC12042874.

This data set in a line: amyloid nucleation score (Sup35N fusion, yeast selection) (log enrichment); library NNK3; higher = more nucleation; inactive = no reads after selection. An outline of the steps:
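Peptides of 20 random codons, each fused to Sup35N, were expressed in psi-negative yeast. Cells were induced with 100 μM copper sulfate for 24 hours and grown 7 days at 30°C on medium lacking adenine and uracil, and plasmid inserts before and after selection were Illumina-sequenced. Nucleation scores are DiMSum log enrichments of output over input reads, centred on the mode score of non-aggregating sequences, and sequences under 100 input reads were excluded.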

± gives the uncertainty stated by the source.

In the case of TIRFGSSLPCNPDSSYLLRI, the amyloid nucleation score entry was “inactive”.
As for NNLEFQFNWRLEVGFC, the amyloid nucleation score entry was “inactive”.
Then LLIKDYMHDHLGIILYTEEC, with “inactive”; and LFSSFTSPLRMRWLDRSYHF, with “inactive”.
As for IYSNSPDRPEFHCNSRCGDG, the amyloid nucleation score result is “inactive”.
Then FFSSFPFKIIEMLSFEGSFR, with “inactive”; and TNIYKARL, with “inactive”.
Turning to RRQLLVGIP, the amyloid nucleation score entry was “inactive”.
On to SECRTRLWLRESYNFSPDVK, for which the amyloid nucleation score result is “inactive”.
The result for NYECNGWVGFVLTVPYGTIW reads “inactive”; that for PHIGYCMW, “inactive”; that for IQISYNWW, 0.75 ± 0.3.
Take ICSMYTTVSRNTEL: the amyloid nucleation score entry was “inactive”.
The result for CVMNRN reads “inactive”; that for VVDILFKMHEVDSVI, “inactive”.
The result for LKYFQVRT reads “inactive”.
The result for ITIGTTIGDLSYR reads “inactive”; that for MGHHRCYVRVSKKDYWF, “inactive”.
In the case of TFLMAYSWSCRQRNCKGFIY, the amyloid nucleation score result was “inactive”.
The result for IALSTDSMPRYLEALRACGC reads “inactive”.
The result for YEARSWE reads “inactive”; that for INGDNAPGYYYIMMIPRDIH, 0.858 ± 0.12; that for HVSLNLDSQNCCMSECFA, “inactive”.
The result for TLSCTKVTP reads “inactive”; that for EVCQCRPTTVSLARVGRIVV, “inactive”.
The substance LSYSIRLLIFVRR yielded an amyloid nucleation score of -0.293 ± 0.82.
The result for SVDYDMARSVGCPFWSPKRV reads “inactive”; that for TLGVRIHCGEFNLYDHSRVK, 0.875 ± 0.26; that for HGFERSRSGNRSGLIDDLGC, “inactive”.
For the substance LNFSHGSCGSFCGSIMIST, the amyloid nucleation score entry is “inactive”.
Regarding LQYHRLGQLPRQNRDTVLLL, the amyloid nucleation score result was “inactive”.
Then SVSASRSEVTRE, with -0.146 ± 0.64.
Then VHVVLIIWTSHQLTCADLAY, with “inactive”.
The result for TWCAHS reads “inactive”; that for HNVCTKAKTRMYRVERS, “inactive”; that for SDNRSPSLRLFYRPRFHRLG, “inactive”.
In the case of VNMMRDVVIDKVLFLSSHVA, the amyloid nucleation score was 1.48 ± 0.12.
Then SFSYWGKDRSRVSNL, with “inactive”; and KGSTLVMLP, with “inactive”; and MPSRHFLGY, with “inactive”.
The result for EPKLDNV reads “inactive”.
In the case of SIYCANQRSLVYHYVLAFTT, the amyloid nucleation score entry was “inactive”.
LCSVDVVLPVKYCVLPDH came in with an amyloid nucleation score of 1.76 ± 0.076.
With FLDDLTLVHGRSETKKNL, the amyloid nucleation score entry is “inactive”.
The result for ERELGQRLSCTGNSTVWSYE reads “inactive”; that for RQISLYFSFNRFSMYFTLNL, “inactive”.
The result for RFNGDQMYFNLSFKISELFP reads 1.09 ± 0.079; that for INFNLVHRLEVFWRVI, “inactive”.
The result for KNVSEEVGLSLVPSEGKSHL reads “inactive”; that for YAYEIRRLT, “inactive”; that for SVTFTSSVLYEGSKVSAFLL, “inactive”.
VCYVKYSSLLCMNLGIRHRT: the amyloid nucleation score entry is “inactive”.
The result for LCLVSLVIHHGYVLVT reads “inactive”; that for THEVISSFGMVFRNSNFCNS, “inactive”.
